Measurements from patent publication US20220380463A1 (Adimab, published 2022).

T1: Cynomolgus CD3εδ Fc heterodimer (Cy CD3ε Fc / CD3δ Fc-HIS) (cynomolgus, UniProt Q95LI8 22-100)
T1 chain 1: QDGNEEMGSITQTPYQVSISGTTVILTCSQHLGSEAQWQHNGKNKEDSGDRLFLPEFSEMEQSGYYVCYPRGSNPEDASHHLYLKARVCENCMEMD
T1 chain 2: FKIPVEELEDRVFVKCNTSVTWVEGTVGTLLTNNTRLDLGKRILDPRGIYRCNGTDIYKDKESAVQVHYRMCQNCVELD


Biological target: T1, Cynomolgus CD3εδ Fc heterodimer (Cy …)
Experiment: BLI (Octet), IgG on AHC sensor, pH 6.0

Row | koff | Binder
1 | 0.006 s⁻¹ | SAD10318_P03_A08 (ADI-57283) (antibody, V domains shown, IgG; also called Ab195) VH: QVQLVQSGAEVKKPGASVKVSCKASGFNIKDYYMHWVRQAPGQRLEWMGWIDLENANTIYDAKFQGRVTITRDTSASTAYMELSSLRSEDTAVYYCARDAYGRYHYDHWGQGTLVTVSS VL: DIVMTQSPDSLAVSLGERATINCKSSQSLLNARTGHNHLAWYQQKPGQPPKLLIYWASTRESGVPDRFSGSGSGTDFTLTISSLQAEDVAVYYCKQSYSRRTFGGGTKVEIK
2 | 0.00139 s⁻¹ | SAD10318_P03_F09 (ADI-57286) (antibody, V domains shown, IgG; also called Ab208) VH: QVQLVQSGAEVKKPGASVKVSCKASGFNIKDYYMHWVRQAPGQRLEWMGWIDLENANTIYDAKFQGRVTITRDTSASTAYMELSSLRSEDTAVYYCARDAYGHYHYDVWGQGTLVTVSS VL: DIVMTQSPDSLAVSLGERATINCKSSQSLLNAHPGKNYLAWYQQKPGQPPKLLIYWASTRESGVPDRFSGSGSGTDFTLTISSLQAEDVAVYYCHQSYHRRTFGGGTKVEIK
3 | 0.00215 s⁻¹ | SAD10318_P04_G11 (ADI-57294) (antibody, V domains shown, IgG; also called Ab222) VH: QVQLVQSGAEVKKPGASVKVSCKASGFNIKDYYMHWVRQAPGQRLEWMGWIDLENANTIYDAKFQGRVTITRDASASTAYMELSSLRSEDTAVYYCARDAYHRYHYDVWGQGTLVTVSS VL: DIVMTQSPDSLAVSLGERATINCKSSQSLLNAHTGKNHLAWYQQKPGQPPKLLIYWASTRESGVPDRFSGSGSGTDFTLTISSLQAEDVAVYYCKQSHSRRTFGGGTKVEIK
4 | 0.00183 s⁻¹ | SAD10318_P04_F11 (ADI-57293) (antibody, V domains shown, IgG; also called Ab221) VH: QVQLVQSGAEVKKPGASVKVSCKASGFNTKDYYMHWVRQAPGQRLEWMGWIDLENANTIYDAKFQGRVTITRDTSASTAYMELSSLRSEDTAVYYCARDAHGRYHYDVWGQGTLVTVSS VL: DIVMTQSPDSLAVSLGERATINCKSSQSLLNARTGHNHLAWYQQKPGQPPKLLIYWASTRESGVPDRFSGSGSGTDFTLTISSLQAEDVAVYYCKQSYSRRTFGGGTKVEIK
5 | 0.00256 s⁻¹ | SAD10318_P04_E11 (ADI-57292) (antibody, V domains shown, IgG; also called Ab220) VH: QVQLVQSGAEVKKPGASVKVSCKASGFNIKDYYMHWVRQAPGQRLEWMGWIDLENANTIYDAKFQGRVTITRDTSASTAYMELSSLRSEDTAVYYCARDAYGHYFYDHWGQGTLVTVSS VL: DIVMTQSPDSLAVSLGERATINCKSSQSLLNARTGHNHLAWYQQKPGQPPKLLIYWASTRESGVPDRFSGSGSGTDFTLTISSLQAEDVAVYYCHQSYSHRTFGGGTKVEIK
6 | 0.00544 s⁻¹ | SAD10318_P03_G08 (ADI-57285) (antibody, V domains shown, IgG; also called Ab201) VH: QVQLVQSGAEVKKPGASVKVSCKASGFNIKDYYMHWVRQAPGQRLEWMGWIDLENANTIYDAKFQGRVTITRDTSASTAYMELSSLRSEDTAVYYCARDHYHRYFYDVWGQGTLVTVSS VL: DIVMTQSPDSLAVSLGERATINCKSSQSLLHARTGKNHLAWYQQKPGQPPKLLIYWASTRESGVPDRFSGSGSGTDFTLTISSLQAEDVAVYYCKQSHSHRTFGGGTKVEIK
7 | 0.00303 s⁻¹ | SAD10318_P03_B08 (ADI-57284) (antibody, V domains shown, IgG; also called Ab196) VH: QVQLVQSGAEVKKPGASVKVSCKASGFNIKDYYMHWVRQAPGQRLEWMGWIDLENANTIYDAKFQGRVTITRDTSASTAYMELSSLRSEDTAVYYCARDHYHRYFYDVWGQGTLVTVSS VL: DIVMTQSPDSLAVSLGERATINCKSSQSLLNAHTGHNYLAWYQQKPGQPPKLLIYWASTRESGVPDRFSGSGSGTDFTLTISSLQAEDVAVYYCHQSYSHRTFGGGTKVEIK
8 | 0.00559 s⁻¹ | SAD10318_P03_G09 (ADI-57287) (antibody, V domains shown, IgG; also called Ab209) VH: QVQLVQSGAEVKKPGASVKVSCKASGFNIKDYYMHWVRQAPGQRLEWMGWIDLENANTIYDAKFQGRVTITRDTSASTAYMELSSLRSEDTAVYYCARDHYGHYFYDVWGQGTLVTVSS VL: DIVMTQSPDSLAVSLGERATINCKSSQSLLNAHTGHNYLAWYQQKPGQPPKLLIYWASTRESGVPDRFSGSGSGTDFTLTISSLQAEDVAVYYCHQSYSHRTFGGGTKVEIK
9 | 0.00245 s⁻¹ | SAD10318_P04_E10 (ADI-57288) (antibody, V domains shown, IgG; also called Ab212) VH: QVQLVQSGAEVKKPGASVKVSCKASGFNIKDYYMHWVRQAPGQRLEWMGWIDLENANTIYDAKFQGRVTITRDTSASTAYMELSSLRSEDTAVYYCARDAYGRYHYDHWGQGTLVTVSS VL: DIVMTQSPDSLAVSLGERATINCKSSQSLLNARTGHNYLAWYQQKPGQPPKLLISGSTRESGVPDRFSGSGSGTDFTLTISSLQAEDVAVYYCHQSYHRRTFGGGTKVEIK
10 | 0.0328 s⁻¹ | SAD10319_P01_A01 (ADI-48619) (antibody, V domains shown, IgG; also called Ab229) VH: QVQLVQSGAEVKKPGASVKVSCKASGYTFASYAMHWVRQAPGQRLEWMGWINPDTGNTVYSQKFQGRVTITRDTSASTAYMELSSLRSEDTAVYYCARDAYHHYFYDVWGQGTLVTVSS VL: DIVMTQSPDSLAVSLGERATINCKSSQSLLNARTGKNYLAWYQQKPGQPPKLLIYWASTRESGVPDRFSGSGSGTDFTLTISSLQAEDVAVYYCKQSYSRRTFGGGTKVEIK
11 | 0.00254 s⁻¹ | SAD10318_P04_H12 (ADI-57297) (antibody, V domains shown, IgG; also called Ab228) VH: QVQLVQSGAEVKKPGASVKVSCKASGFNIKDYYMHWVRQAPGQRLEWMGWIDLENANTIYDAKFQGRVTITRDTSASTAYMELSSLRSEDTAVYYCARDAHGRYFHDVWGQGTLVTVSS VL: DIVMTQSPDSLAVSLGERATINCKSSQSLLNAHTGKNHLAWYQQKPGQPPKLLIYWASTRESGVPDRFSGSGSGTDFTLTISSLQAEDVAVYYCHQSYSHRTFGGGTKVEIK
12 | 0.00284 s⁻¹ | SAD10318_P04_H10 (ADI-57290) (antibody, V domains shown, IgG; also called Ab214) VH: QVQLVQSGAEVKKPGASVKVSCKASGFNIKDYYMHWVRQAPGQRLEWMGWIDLENANTIYDAKFQGRVTITRDTSASTAYMELSSLRSEDTAVYYCARDHYGHYFYDVWGQGTLVTVSS VL: DIVMTQSPDSLAVSLGERATINCKSSQSLLNAHTGKNHLAWYQQKPGQPPKLLIYWASTRESGVPDRFSGSGSGTDFTLTISSLQAEDVAVYYCKQSYSRRTFGGGTKVEIK
13 | 0.0025 s⁻¹ | SAD10318_P04_G12 (ADI-57296) (antibody, V domains shown, IgG; also called Ab227) VH: QVQLVQSGAEVKKPGASVKVSCKASGFNIKDYYMHWVRQAPGQRLEWMGWIDLENANTIYDAKFQGRVTITRDTSASTAYMELSSLRSEDTAVYYCARDAYGHYHYDVWGQGTLVTVSS VL: DIVMTQSPDSLAVSLGERATINCKSSQSLLNAHTGKNHLAWYQQKPGQPPKLLIYWASTRESGVPDRFSGSGSGTDFTLTISSLQAEDVAVYYCKQSYSRRTFGGGTKVEIK
14 | 0.00436 s⁻¹ | SAD10318_P04_F10 (ADI-57289) (antibody, V domains shown, IgG; also called Ab213) VH: QVQLVQSGAEVKKPGASVKVSCKASGFNIKDYYMHWVRQAPGQRLEWMGWIDLENANTIYDAKFQGRVTITRDTSASTAYMELSSLRSEDTAVYYCARDAYHRYHYDVWGQGTLVTVSS VL: DIVMTQSPDSLAVSLGERATINCKSSQSLLNARTHKNHLAWYQQKPGQPPKLLIYWASTRESGVPDRFSGSGSGTDFTLTISSLQAEDVAVYYCKQSYSRRTFGGGTKVEIK
15 | 0.00402 s⁻¹ | SAD10319_P01_C01 (ADI-48621 and ADI-48636) (antibody, V domains shown, IgG; also called Ab230) VH: QVQLVQSGAEVKKPGASVKVSCKASGYTFTDYDMHWVRQAPGQRLEWMGWIDAGTGLTKYSQKFQGRVTITRDTSASTAYMELSSLRSEDTAVYYCARDHYGHYFYDVWGQGTLVTVSS VL: DIVMTQSPDSLAVSLGERATINCKSSQSLLNARTGKNYLAWYQQKPGQPPKLLIYWASTRESGVPDRFSGSGSGTDFTLTISSLQAEDVAVYYCKQSYSRRTFGGGTKVEIK
16 | 0.00251 s⁻¹ | SAD10318_P04_D10 (ADI-48613) (antibody, V domains shown, IgG; also called Ab211) VH: QVQLVQSGAEVKKPGASVKVSCKASGFNIKDYYMHWVRQAPGQRLEWMGWIDLENANTIYDAKFQGRVTITRDTSASTAYMELSSLRSEDTAVYYCARDAYGHYHYDVWGQGTLVTVSS VL: DIVMTQSPDSLAVSLGERATINCKSSQSLLHARTGKNHLAWYQQKPGQPPKLLIYWASTRESGVPDRFSGSGSGTDFTLTISSLQAEDVAVYYCKQSYSRRTFGGGTKVEIK
